Measurements published in PMC2659244 (The Journal of Biological Chemistry, 2009).

B1: talin rod polypeptide 1974-2541 (domain or fragment, UniProt P26039 1974-2541, looked up)
chain: GTQACITAASAVSGIIADLDTTIMFATAGTLNREGAETFADHREGILKTAKVLVEDTKVLVQNAAGSQEKLAQAAQSSVATITRLADVVKLGAASLGAEDPETQVVLINAVKDVAKALGDLISATKAAAGKVGDDPAVWQLKNSAKVMVTNVTSLLKTVKAVEDEATKGTRALEATTEHIRQELAVFCSPEPPAKTSTPEDFIRMTKGITMATAKAVAAGNSCRQEDVIATANLSRRAIADMLRACKEAAFHPEVAPDVRLRALHYGRECANGYLELLDHVLLTLQKPNPDLKQQLTGHSKRVAGSVTELIQAAEAMKGTEWVDPEDPTVIAENELLGAAAAIEAAAKKLEQLKPRAKPKEADESLNFEEQILEAAKSIAAATSALVKAASAAQRELVAQGKVGAIPANALDDGQWSQGLISAARMVAAATNNLCEAANAAVQGHASQEKLISSAKQVAASTAQLLVACKVKADQDSEAMKRLQAAGNAVKRASDNLVKAAQKAAAFEDQENETVVVKEKMVGGIAQIIAAQEEMLRKERELEEARKKLAQIRQQQYKFLPSELRDEH
B2: chicken vinculin domain 1 (residues 1-258) (domain or fragment, UniProt P12003 1-258, looked up)
chain: MPVFHTRTIESILEPVAQQISHLVIMHEEGEVDGKAIPDLTAPVSAVQAAVSNLVRVGKETVQTTEDQILKRDMPPAFIKVENACTKLVRAAQMLQADPYSVPARDYLIDGSRGILSGTSDLLLTFDEAEVRKIIRVCKGILEYLTVAEVVETMEDLVTYTKNLGPGMTKMAKMIDERQQELTHQEHRVMLVNSMNTVKELLPVLISAMKIFVTTKNTKSQGIEEALKNRNFTVEKMSAEINEIIRVLQLTSWDEDAW
B3: talin IBS2-B (residues 2137-2293), His/V5-tagged (domain or fragment, mouse, UniProt P26039 2137-2293, looked up)
chain: DEATKGTRALEATTEHIRQELAVFCSPEPPAKTSTPEDFIRMTKGITMATAKAVAAGNSCRQEDVIATANLSRRAIADMLRACKEAAFHPEVAPDVRLRALHYGRECANGYLELLDHVLLTLQKPNPDLKQQLTGHSKRVAGSVTELIQAAEAMKGT
B4: talin IBS2 polypeptide (residues 1974-2293), His/V5-tagged (domain or fragment, mouse, UniProt P26039 1974-2293, looked up)
chain: GTQACITAASAVSGIIADLDTTIMFATAGTLNREGAETFADHREGILKTAKVLVEDTKVLVQNAAGSQEKLAQAAQSSVATITRLADVVKLGAASLGAEDPETQVVLINAVKDVAKALGDLISATKAAAGKVGDDPAVWQLKNSAKVMVTNVTSLLKTVKAVEDEATKGTRALEATTEHIRQELAVFCSPEPPAKTSTPEDFIRMTKGITMATAKAVAAGNSCRQEDVIATANLSRRAIADMLRACKEAAFHPEVAPDVRLRALHYGRECANGYLELLDHVLLTLQKPNPDLKQQLTGHSKRVAGSVTELIQAAEAMKGT
B5: IBS2: recombinant murine talin residues 1974-2293, two five-helix bundles, integrin-binding site 2 (protein)
chain: B4 chain
modifications: left off: His tag, N-terminal, kept | V5 epitope, N-terminal, kept
B6: talin IBS2-A (residues 1974-2140), His/V5-tagged (domain or fragment, mouse, UniProt P26039 1974-2140, looked up)
chain: GTQACITAASAVSGIIADLDTTIMFATAGTLNREGAETFADHREGILKTAKVLVEDTKVLVQNAAGSQEKLAQAAQSSVATITRLADVVKLGAASLGAEDPETQVVLINAVKDVAKALGDLISATKAAAGKVGDDPAVWQLKNSAKVMVTNVTSLLKTVKAVEDEAT
B7: talin IBS2-A (residues 1974-2140), His tag removed (domain or fragment, mouse, UniProt P26039 1974-2140, looked up)
chain: B6 chain

Legend:
[1] = biological target: T1, His-Avi-tagged β3-integrin tail, biotinylated (UniProt P05106 742-788, biotin (biotinylated tails, held on NeutrAvidin)); test: ELISA
T1 chain (looked up): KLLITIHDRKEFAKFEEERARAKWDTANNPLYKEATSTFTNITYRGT

[2] = biological target: T2, talin IBS2 polypeptide (residues 1974-2293), His tag removed (mouse, UniProt P26039 1974-2293); test: SEC
[3] = biological target: T3, His-Avi-tagged β1A-integrin tail, biotinylated (UniProt P05556-1 752-798, biotin (biotinylated tails, held on NeutrAvidin)); test: ELISA
T3 chain (looked up): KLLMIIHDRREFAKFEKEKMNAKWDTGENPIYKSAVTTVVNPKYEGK

β3-integrin tail = test: ELISA-type binding of talin polypeptides to immobilized β3-integrin tails
[4] = biological target: B2; test: SEC
[5] = biological target: T2, talin IBS2 polypeptide (residues …); test: NMR titration

B1
EC50 [1]: > 2500 nM

B2
binding result [2]: binds

B3
EC50 [1]: > 2500 nM

B4
EC50 [1]: 900 ± 200 nM
EC50 [3]: 900 ± 100 nM

B5
affinity for β-integrin tails, fold weaker than binding by the talin FERM domain (β3-integrin tail): ~2 fold

B6
EC50 [1]: > 2500 nM

B7
binding result [4]: binds

KLLITIHDRKEFAKFEEERARAKWDTANNPLYKEATSTFTNITYRGT (peptide, UniProt P05106 742-788, looked up) [full-length β3-integrin tail peptide (residues 716-762)]
binding result [5]: binds
